In patent US5723579A, “Fibrinogen binding peptides” (Bayer Corporation, priority 1996, dated 1998):
No end group written: not given here.

Legend:
fibrinogen [1] = biological target: T1, fibrinogen (Homo sapiens, UniProt P02671+P02675+P02679); assay: Isothermal titration calorimetry of peptide binding to purified fibrinogen; details: solution phase binding, soluble peptide; 30° C., 30 mM phosphate buffer, pH 7.0
T1 construct: purchased Sigma Chemical Co. (St. Louis, Mo.) and Chromogenix AB (Molndal, Sweden)
T1 sequence (P02671 20-644 isoform P02671-2 limits assumed): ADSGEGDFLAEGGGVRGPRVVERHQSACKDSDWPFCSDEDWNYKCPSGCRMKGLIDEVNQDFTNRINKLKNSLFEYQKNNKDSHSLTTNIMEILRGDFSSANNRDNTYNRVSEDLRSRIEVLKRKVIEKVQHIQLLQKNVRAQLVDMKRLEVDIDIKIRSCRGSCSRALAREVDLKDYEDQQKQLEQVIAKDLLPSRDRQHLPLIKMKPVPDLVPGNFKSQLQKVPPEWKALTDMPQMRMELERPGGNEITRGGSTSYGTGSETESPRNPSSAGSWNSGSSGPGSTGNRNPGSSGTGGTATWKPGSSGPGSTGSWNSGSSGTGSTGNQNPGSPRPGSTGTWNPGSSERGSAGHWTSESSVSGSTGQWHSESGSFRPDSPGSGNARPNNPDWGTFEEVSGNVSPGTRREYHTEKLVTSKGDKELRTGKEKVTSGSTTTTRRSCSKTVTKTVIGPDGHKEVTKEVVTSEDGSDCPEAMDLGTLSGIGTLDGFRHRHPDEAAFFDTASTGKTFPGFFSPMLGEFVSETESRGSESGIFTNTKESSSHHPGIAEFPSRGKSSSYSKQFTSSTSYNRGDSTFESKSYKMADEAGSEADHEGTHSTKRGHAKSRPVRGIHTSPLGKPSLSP
T1 sequence (P02675 31-491): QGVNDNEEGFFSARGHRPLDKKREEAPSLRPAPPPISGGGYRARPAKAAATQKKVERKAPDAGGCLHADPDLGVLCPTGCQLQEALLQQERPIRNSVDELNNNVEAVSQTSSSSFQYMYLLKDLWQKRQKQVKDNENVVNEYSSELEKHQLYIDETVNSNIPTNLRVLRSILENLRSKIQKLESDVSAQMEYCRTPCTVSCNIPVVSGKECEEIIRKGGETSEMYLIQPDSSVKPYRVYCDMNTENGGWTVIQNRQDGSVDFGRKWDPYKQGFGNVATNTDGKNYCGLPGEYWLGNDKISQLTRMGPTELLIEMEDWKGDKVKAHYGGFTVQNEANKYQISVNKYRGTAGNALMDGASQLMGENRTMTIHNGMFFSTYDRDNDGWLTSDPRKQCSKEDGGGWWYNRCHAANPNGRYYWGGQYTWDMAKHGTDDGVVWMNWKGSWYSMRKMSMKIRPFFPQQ
T1 sequence (P02679 27-453): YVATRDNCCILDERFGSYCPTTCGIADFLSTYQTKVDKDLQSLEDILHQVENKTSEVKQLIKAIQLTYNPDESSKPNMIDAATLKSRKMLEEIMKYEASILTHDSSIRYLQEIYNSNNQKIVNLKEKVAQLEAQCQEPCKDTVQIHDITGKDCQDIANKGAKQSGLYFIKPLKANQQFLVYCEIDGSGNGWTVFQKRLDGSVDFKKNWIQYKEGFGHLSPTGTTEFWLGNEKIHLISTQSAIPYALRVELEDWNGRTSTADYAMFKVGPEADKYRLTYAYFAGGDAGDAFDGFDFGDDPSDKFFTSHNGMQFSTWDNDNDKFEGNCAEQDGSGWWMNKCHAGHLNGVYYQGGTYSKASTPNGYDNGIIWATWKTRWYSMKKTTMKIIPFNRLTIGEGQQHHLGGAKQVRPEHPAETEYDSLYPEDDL
Procedure: Isothermal titration colorimetry was performed using either purified, soluble peptides (5 mM) or peptides synthesized directly on A-Totda-Togopearl (1.4mM) and with purified fibrinogen (50 μM) by a modification of the technique of Tyler-Cross et at. (1993). All measurements were performed at 30° C. in 30 mM phosphate buffer, pH 7.0 with an Omega titration colorimeter (Microcal, Inc., Northampton, Mass.).
Solution phase binding isotherms were performed on the purified soluble peptides and purified fibrinogen by using isothermal titration calorimetry (Table 3). […] A change from P to F at the amino terminus lowered the dissociation constant over 150-fold. PLLVPL (SEQ ID NO:2) bound to approximately 3 to 4 sites per fibrinogen molecule. […] Both peptide binding reactions were endothermic as indicated by the positive enthalpy (ΔH), and were thermodynamically favorable (negative ΔG) under the conditions tested. Unusually high entropic terms indicate a conformational change may be driving the association of peptide with fibrinogen.

fibrinogen [2] = biological target: T1, fibrinogen; assay: Confirmatory binding assay in column chromatographic format: fibrinogen applied to peptide resins, NaCl wash and acid eluate quantified by A280; details: for 2% Acetic Acid Eluate, A280: peptide synthesized on A-Totda-Toyopearl, Table 2; for 1 M NaCl Eluate, integration of the absorbance at 280 nm / 2% Acetic Acid Eluate, integration of the absorbance at 280 nm: truncations on A-Totda-Toyopearl, Table 6
Procedure: Confirmatory binding assays were performed in a column chromatographic format on a microbore HPLC using individual peptide sequences synthesized directly onto the Toyopearl 650M Chelate resin which had been modified with Totda followed by an alanine residue (A-Totda-Toyopearl), at a final substitution density of 0.2 mmole/g resin. […] The endpoint was a dose-dependent increase in the acid eluate in the fibrinogen contactings, and quantification was by integration of the absorbance at 280 nm (Table 2).
Peptides PLLVPL and FLLVPL, with and without an N-acetylated amino terminus, were synthesized directly onto Ala-Totda-Toyopearl at a density of approximately 0.2 mmole/g resin. The ability of these resins to bind fibrinogen was determined as above. An unblocked (free) amino terminus was required for binding fibrinogen to PLLVPL-A-Totda-Toyopearl (Table 5) (SEQ ID NO:2). Similar results were obtained in a separate experiment by using FLLVPL-A-Totda-Toyopearl (Table 5) (SEQ ID NO:1).
Truncations from the carboxyl- and amino- termini of PLLVPL and FLLVPL (SEQ ID NOS 2 and 1, respectively) synthesized directly on A-Totda-Toyopearl resin in order to identify the minimum sequence necessary for binding.

fibrinogen [3] = biological target: T1, fibrinogen; assay: Characterization of binding interaction: fibrinogen (25 mg) on 5 ml FLLVPL resin column, binding and elution under varied conditions
Procedure: Peptide FLLVPL was synthesized directly on A-Totda-Toyopearl at a density of 0.2 mmole/g resin. A column of dimensions 1.0×6.4 cm (approximately 5 ml column volume) was equilibrated with either 10 mM HEPES or 10 mM sodium acetate, pH 6.8, 1.0 mM EGTA and either 0.1, 0.2 or 1.0M NaCl. Fibrinogen (25 mg; 5.0 ml) was applied to the column in 10 mM sodium acetate, pH 6.8 and 1 mM EGTA containing 0.1M NaCl.
Fibrinogen (25 mg; 5.0 ml) was applied to the column in 10 mM sodium acetate, pH 6.8 and 1 mM EGTA containing 0.1M NaCl.
No elution of fibrinogen (applied to the column in 10 mM sodium acetate, pH 6.8 and 1 mM EGTA containing 0.1M NaCl) was observed by using the hydrophilic compound, polyethylene glycol (10%). Only approximately 8 percent of the applied fibrinogen was eluted by increasing the pH to 10 with 10 mM sodium borate. Further increases in pH with a linear gradient (pH 6.8 to 12.0) released approximately 25 percent of the fibrinogen.
In order to assess further the contribution of hydrophobic interactions to the binding mechanism of FLLVPL (SEQ ID NO.:1) to fibrinogen, fibrinogen (25 mg; 5.0 ml) was applied to the peptide under high salt conditions favorable to hydrophobic bonding and release under low ionic strength. The peptide resin was equilibrated with 10 mM sodium acetate, 1.0M NaCl, and 1.0 mM EGTA, pH 6.8. Five milliliters of a solution of fibrinogen (5 mg/ml) in the same buffer was applied to the column, and washed with two column volumes of the same buffer. The resin was then contacted with 10 column volumes of 10 mM sodium acetate, pH 4.0 followed by 2% acetic acid (4 column volumes). […] Low ionic strength and low pH (4.0) released approximately 78.3 percent of the protein. However, only 5% of the applied protein was eluted in a second experiment when the 10 mM sodium acetate, pH 4.0 solution contained 0.1M NaCl. Acid treatment released the remainder of the recovered protein in both experiments.

**Q.** How did the Kd (fibrinogen [1]) turn out when “PLLVPL-NH2 [PLLVPL, Pro-Leu-Leu-Val-Pro-Leu]” was run?
**A.** 688 µM

**Q.** “AALVPL: peptide sequence AALVPL synthesized on A-Totda-Toyopearl (not fully specified (C-terminus))” was tested. Which “2% Acetic Acid Eluate, A280” value (fibrinogen [2]; 250 μg fibrinogen applied) did it give?
**A.** 0.02

**Q.** And the “2% Acetic Acid Eluate, A280” value (fibrinogen [2]; 500 μg fibrinogen applied)?
**A.** 0.09

**Q.** What about the “2% Acetic Acid Eluate, A280” value (fibrinogen [2]; 1000 μg fibrinogen applied) of the same substance?
**A.** 0.12

**Q.** How did the Kd (fibrinogen [1]) turn out when “FLLVPL-NH2 [FLLVPL, Phe-Leu-Leu-Val-Pro-Leu]” was run?
**A.** 4.5 µM

**Q.** What about the applied protein eluted (fibrinogen [3]; 10 mM sodium acetate, pH 4.0 containing 0.1M NaCl (second experiment)) of the same substance?
**A.** 5%

**Q.** And the “applied protein (A280) not interacting with the column, recovered in flow through and wash” value (fibrinogen [3]; applied in 10 mM sodium acetate, 1.0M NaCl, 1.0 mM EGTA, pH 6.8)?
**A.** Approximately 7.2%

**Q.** What about the “release of the applied protein” value (fibrinogen [3]; elution with ionic detergent (2% sodium cholate)) of the same substance?
**A.** 14%

**Q.** And the “release of the applied protein” value (fibrinogen [3]; elution with nonionic detergent (5% Tween-20) in the binding buffer)?
**A.** 40%

**Q.** And the fibrinogen released (fibrinogen [3]; linear pH gradient (pH 6.8 to 12.0))?
**A.** approximately 25%

**Q.** And the protein released (fibrinogen [3]; low ionic strength, 10 mM sodium acetate, pH 4.0, after high salt application)?
**A.** approximately 78.3%

**Q.** And the “applied absorbance (280 nm) that failed to bind the column” value (fibrinogen [3]; pH 6.8, 1.0 mM EGTA, column equilibrated with 0.1, 0.2 or 1.0M NaCl)?
**A.** 5 to 8%

**Q.** What about the release of fibrinogen (fibrinogen [3]; pH gradient from 6.8 to 4.0, release at pH 4.2) of the same substance?
**A.** approximately 66%

**Q.** What about the applied fibrinogen eluted (fibrinogen [3]; pH increased to 10 with 10 mM sodium borate) of the same substance?
**A.** approximately 8%

**Q.** How did the “1 M NaCl Eluate, integration of the absorbance at 280 nm” value (shortened to “1 M NaCl Eluate, integration”) (fibrinogen [2]; 250 μg fibrinogen applied) turn out when “Phe-Leu-Leu-Val (FLLV; printed: Phe-Leu-Leu-Val) [truncation of FLLVPL on A-Totda-Toyopearl resin]” was run?
**A.** 0.00 ×10^6

**Q.** What about the “2% Acetic Acid Eluate, integration of the absorbance at 280 nm” value (from here on “2% Acetic Acid Eluate, integration”) (fibrinogen [2]; 250 μg fibrinogen applied) of the same substance?
**A.** 1.51 ×10^6

**Q.** What about the “1 M NaCl Eluate, integration” value (fibrinogen [2]; 500 μg fibrinogen applied) of the same substance?
**A.** 0.00 ×10^6

**Q.** And the “2% Acetic Acid Eluate, integration” value (fibrinogen [2]; 500 μg fibrinogen applied)?
**A.** 1.79 ×10^6

**Q.** And the “1 M NaCl Eluate, integration” value (fibrinogen [2]; 1000 μg fibrinogen applied)?
**A.** 0.50 ×10^6

**Q.** What about the “2% Acetic Acid Eluate, integration” value (fibrinogen [2]; 1000 μg fibrinogen applied) of the same substance?
**A.** 4.99 ×10^6

**Q.** For “Phe-Ala-Leu-Val- Pro-Leu (FALVPL; not fully specified (C-terminus); printed as Phe-Ala-Leu-Val-Pro-Leu)”, which “2% Acetic Acid Eluate, A280” value (fibrinogen [2]; 250 μg fibrinogen applied) is on record?
**A.** 0.72

**Q.** What about the “2% Acetic Acid Eluate, A280” value (fibrinogen [2]; 500 μg fibrinogen applied) of the same substance?
**A.** 1.35

**Q.** What about the “2% Acetic Acid Eluate, A280” value (fibrinogen [2]; 1000 μg fibrinogen applied) of the same substance?
**A.** 2.78

**Q.** For “PALVPL: peptide sequence PALVPL synthesized on A-Totda-Toyopearl (not fully specified (C-terminus))”, which “2% Acetic Acid Eluate, A280” value (fibrinogen [2]; 250 μg fibrinogen applied) is on record?
**A.** 0.01

**Q.** And the “2% Acetic Acid Eluate, A280” value (fibrinogen [2]; 500 μg fibrinogen applied)?
**A.** 0.06

**Q.** What about the “2% Acetic Acid Eluate, A280” value (fibrinogen [2]; 1000 μg fibrinogen applied) of the same substance?
**A.** 0.13

**Q.** What does the source list for “ALLVPL: peptide sequence ALLVPL synthesized on A-Totda-Toyopearl (not fully specified (C-terminus))”?
**A.** 2% Acetic Acid Eluate, A280 (fibrinogen [2]; 250 μg fibrinogen applied): 0.02; 2% Acetic Acid Eluate, A280 (fibrinogen [2]; 500 μg fibrinogen applied): 0.09; 2% Acetic Acid Eluate, A280 (fibrinogen [2]; 1000 μg fibrinogen applied): 0.12
